Measurements taken from patent US7056679B2, “Target specific screening and its use for identifying target binders” (Antyra, Inc., priority 2001, dated 2006).

Columns and labels:
DGI-2 = molecular target: T1, DGI-2 (Homo sapiens, UniProt Q15004); test: ELISA analysis of phage on DGI-2 polypeptide (specific binding); conditions: for DGI-2 (OD): binding to DGI-2 polypeptide (specific binding), phage ELISA units read at 405 nm; for DGI-2/LDH (OD): ratio of specific binding to non-specific binding
T1 construct: encompassed the entire DGI-2 open reading frame (ORF); His-tag of vector pIVEX2.3-MCS (inferred from the vector and from the reverse primer lacking a stop codon); made in house; host or cells: cell-free in vitro translation (Rapid Translation System RTS, Roche; E. coli lysate)
T1 sequence (Q15004 1-111): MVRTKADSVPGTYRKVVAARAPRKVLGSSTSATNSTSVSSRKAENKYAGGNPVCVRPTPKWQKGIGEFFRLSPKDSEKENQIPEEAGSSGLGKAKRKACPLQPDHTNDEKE
Procedure, shortened: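 Recombinant DGI-2 from in vitro translation, LDH (non-specific) and controls were coated at 500 ng/well and blocked with 2% milk-PBS. Phage from individual clones bound for 2 hr at room temperature, then anti-M13-HRP with ABTS was read at 405 nm; a clone counted as positive at ≥2-fold over background.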

[1] = tested on: lactate dehydrogenase (LDH); test: ELISA analysis of phage on LDH (irrelevant, non-specific target); type: binding; conditions: peptide binding to LDH polypeptide (non-specific binding); phage ELISA units read at 405 nm
Procedure, shortened: (§1)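 Phage from picked clones (M13KO7 helper) bound 2 hr at room temperature to wells coated overnight at 4 °C with 500 ng/well anti-ETAG antibody or LDH, milk-blocked. Detection with HRP-anti-M13 (1:3000) and ABTS at 405 nm; positive when A405 ≥2-fold over background.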

E-tag antibody = test: ELISA analysis of phage on antibody raised against ETAG (positive control); conditions: peptide binding to E-tag antibody; phage ELISA units read at 405 nm
Procedure, shortened: as §1

Row | Sequence | DGI-2 (OD) (DGI-2) | DGI-2/LDH (OD) (DGI-2) | LDH (OD) [1] [OD] | ETAG (OD) (E-tag antibody)
1 | YAMSSRECGIRNSGLILSMW (DGI-2-20F-PP-C9; listed as Escherichia coli) | 3.5 | 3.9 | 0.9 | 31.6
2 | DRSRAPLCADKSGRWQRYRR (DGI-2-20F-PP-C10; listed as Escherichia coli) | 2.7 | 3.1 | 0.9 | 8.6
3 | RRGVCEIFTGWCVGQTNERP (DGI-2-20R-4-H626; listed as Escherichia coli) | 9.6 | 8.8 | 1.1 | 13.5
4 | VWRDWVNGTVGLRNREKPGV (DGI2-20R-3-A5; listed as Escherichia coli) [DGI-2-20R-3-A5] | 10.9 | 9.8 | 1.1 | 14.9
5 | GLRACDTYLGFCVGARRIDD (DGI-2-20F-3-B102; listed as Escherichia coli) | 2.4 | 2.5 | 1.0 | 18.0
6 | GRAGTSMTELVAWGFVQRVG (DGI-2-20F-PP-H10; listed as Escherichia coli) | 1.4 | 1.9 | 0.7 | 13.0
7 | LHRLGQSMGGTLDHLQGWGV (DGI-2-20R-4-E5; listed as Escherichia coli) | 1.2 | 1.1 | 1.1 | 17.9
8 | RRTSADTDQLSRWEGAQAFSSLRSALSERLDSLRPGLPPS (DGI-2-40F-3-D9; listed as Escherichia coli) | 1.1 | 1.4 | 0.8 | 15.8
9 | QMIFSKGNWLAHPEGGVALGLSRESQLFRSCREFGYCMGPM [DGI-2-40F-3-C6] | 2.3 | 2.8 | 0.8 | 10.1
10 | GRWDGWEVCGIWGADDCASG (DGI-2-20R-4-H1; listed as Escherichia coli) | 9.3 | 7.8 | 1.2 | 14.0
11 | SRELGKWGRLWQDWSSGNFS (DGI-2-20R-3-C11; listed as Escherichia coli) | 8.6 | 8.3 | 1.0 | 18.9
12 | LSVFRPGQFPHVGARGVSRT (DGI-2-20R-4-G32; listed as Escherichia coli) | 1.4 | 1.2 | 1.1 | 11.0
13 | PKDGAAFKGSDFIQGGQTVMERAPALWWRDGGGQWEAPST (DGI-2-40F-3-B72; listed as Escherichia coli) | 1.0 | 1.3 | 0.7 | 10.4
14 | GVVRAQQGLRYELQGDRYRLRRTQWLTVTYCSPSWAFAGC (DGI-2-40F-3-B116; listed as Escherichia coli) | 1.7 | 2.0 | 0.8 | 6.5
15 | VGHLLSRCAHHSPGMGASPYG (DGI-2-20F-PP-B11; listed as Escherichia coli) | 2.6 | 2.7 | 1.0 | 40.8
16 | WWERFVWGRPVDDGVVVMAT (DGI-2-20R-3-B1; listed as Escherichia coli) | 6.3 | 6.2 | 1.0 | 14.5
17 | MGSLGPFGNTNSLASGIGSVRNRPLLPLHGSP [DGI-2-40F-3-D72] | 3.1 | 2.8 | 1.1 | 14.0
18 | WAGSTDLWQLWSLWVKPELR (DGI-2-20F-3-B7; listed as Escherichia coli) | 1.6 | 1.6 | 0.9 | 16.4
19 | GEVDCVYALTHRFLSPQVQYHIHRPV (GEVDCVYALTHRFLSPQVQYHHRPV; DGI-2-20C-3-A12; listed as Escherichia coli) | 0.9 | 1.0 | 0.9 | 8.1
20 | VRAVYSRDAYNEVGRWMRVGI (DGI-2-20F-PP-D9; listed as Escherichia coli) | 2.9 | 2.9 | 1.0 | 9.0

Row | Sequence | DGI-2 (OD) (DGI-2) | DGI-2/LDH (OD) (DGI-2) | LDH (OD) [1] [OD] | ETAG (OD) (E-tag antibody)
21 | EGQRVVFLFGALVAGLCWRDR (DGI-2-20F-PP-F3; listed as Escherichia coli) | 2.6 | 2.2 | 1.1 | 18.7
22 | SVTISTSCRTGCPAGYLRRD (DGI-2-20F-PP-D2; listed as Escherichia coli) | 2.2 | 3.1 | 0.7 | 30.8
23 | VTGTRFRGFAVACVRMGTWH (DGI-2-20F-PP-F2; listed as Escherichia coli) | 2.4 | 2.5 | 1.0 | 1.9
24 | VCGQRVARMQLNKTIRKLDS (DGI-2-20F-PP-A6; listed as Escherichia coli) | 3.1 | 2.8 | 1.1 | 35.1
25 | HGTRLRGVDYVMTWAGWQGYSSRKHVQQAVAGSSPGSDEL (DGI-2-40F-3-B1; listed as Escherichia coli) | 0.8 | 1.2 | 0.7 | 6.3
26 | SAFGCPLPRALGGGGARFYA (DGI-2-20F-PP-E11; listed as Escherichia coli) | 2.0 | 2.2 | 0.9 | 15.2
27 | WVVALRRIRLGLRRGVECLL (DGI-2-20F-PP-D5; listed as Escherichia coli) | 2.7 | 2.3 | 1.2 | 33.6
28 | VVHTRAWGSWAYGFVLRNRG (DGI-2-20F-PP-F10; listed as Escherichia coli) | 3.5 | 2.8 | 1.3 | 42.5
29 | LAPMFLQNQVRTWAASRRPLPAGPSNARCETGSLSPWVPC (DGI-2-40F-3-B11; listed as Escherichia coli) | 1.8 | 2.0 | 0.9 | 7.9
30 | VVRQGCMAFSGLCSGVTESE (DGI-2-20R-3-C8; listed as Escherichia coli) | 5.6 | 5.3 | 1.1 | 21.1
31 | MQAASTLSTYMGAIRMGYPILHWDRGGVQRVDPGLYRGRV (DGI-2-40F-3-B10; listed as Escherichia coli) | 1.3 | 1.4 | 1.0 | 4.8
32 | VHSQGRMWAIPGLRGGTGAS (DGI-2-20R-3-D7; listed as Escherichia coli) | 5.2 | 5.3 | 1.0 | 18.7
33 | DRVARLATPTAGTMAAGSLGYERTVGCDSQDWFRCVVEGL (DGI-2-40F-3-D1044; listed as Escherichia coli) | 7.9 | 6.2 | 1.3 | 17.7
34 | RWSICRGLQYSIPGCAVEDLSDVMA (DGI-2-20C-4-H316; listed as Escherichia coli) | 3.8 | 3.9 | 1.0 | 7.2
35 | TANGHRYGGCGLWCKWMSGM (DGI-2-20R-4-E2; listed as Escherichia coli) | 2.7 | 2.5 | 1.1 | 18.2
36 | RSIRLQLIDEACQFFDGLCT (DGI-2-20R-3-A8; listed as Escherichia coli) | 6.9 | 6.4 | 1.1 | 15.3
37 | LSHPMSPLRAASQMALTQGV (DGI-2-20R-4-H7; listed as Escherichia coli) | 3.1 | 2.6 | 1.2 | 14.1
38 | SWACGLLWPGECGSQVARRG (DGI-2-20R-3-D127; listed as Escherichia coli) | 6.7 | 6.4 | 1.0 | 15.4
39 | DRHRAFVAEGLDGFRHSTGV (DGI-2-20F-PP-D4; listed as Escherichia coli) | 2.6 | 2.3 | 1.1 | 44.0
